In paper PMC3567257 (Biochemistry, 2012):
Blank lines part the entries; values can stand above or below the binder they belong to. No end group written: not given here. *: point of attachment. 5FAM = O=C1OC2(c3ccc(O)cc3Oc3cc(O)ccc32)c2ccc(C(=O)*)cc21

B5: GST-JARID1A PHD3 (domain or fragment, UniProt P29375 1601-1660, looked up)
chain: EESDDENAVCAAQNCQRPCKDKVDWVQCDGGCDEWFHQVCVGVSPEMAENEDYICINCAK
B6: H3(1-14)K4me3K14fluo (peptide, UniProt P68431 2-15, looked up)
peptide: ARTKQTARKSTGGK
modifications: trimethyl-lysine at position 4; 5-carboxyfluorescein on lysine 14
B7: H3(1-14)K4unmodifiedK14fluo (peptide, UniProt P68431 2-15, looked up)
peptide: ARTKQTARKSTGGK(5FAM)

Key:
H3(1-19)K9me3K19fluo = target: T1, H3(1-19)K9me3K19fluo (UniProt P68431 2-20, trimethyl-lysine at position 9; fluorescein on lysine 19 (K19fluo)); assay: fluorescence polarisation
T1 chain: ARTKQTARKSTGGKAPRKK

H3(1-14)K4me3K14fluo = target: B6; assay: fluorescence polarisation
(HQ)5-HaloTag-AIRE PHD1 = target: T2, (HQ)5-HaloTag-AIRE PHD1 (UniProt O43918 293-354); assay: HaloTag plate binding assay
T2 sequence (looked up): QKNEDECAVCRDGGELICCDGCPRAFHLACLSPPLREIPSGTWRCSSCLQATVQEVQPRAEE

(HQ)5-HaloTag-BHC80 PHD = (HQ)5-HaloTag-BHC80 PHD (UniProt Q96BD5 486-543)
[1] = target: B7; assay: fluorescence polarisation
GST-JARID1A PHD3 D1629A = target: T3, GST-JARID1A PHD3 D1629A (UniProt P29375 1601-1660, D1629A); assay: fluorescence polarisation
T3 sequence (looked up): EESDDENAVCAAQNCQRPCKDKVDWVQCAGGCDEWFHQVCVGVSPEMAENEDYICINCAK

GST-JARID1A PHD3 D1629N = target: T4, GST-JARID1A PHD3 D1629N (UniProt P29375 1601-1660, D1629N); assay: fluorescence polarisation
T4 sequence (looked up): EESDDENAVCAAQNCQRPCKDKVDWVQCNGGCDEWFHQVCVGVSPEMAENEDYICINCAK

GST-JARID1A PHD3 D1624A = target: T5, GST-JARID1A PHD3 D1624A (UniProt P29375 1601-1660, D1624A); assay: fluorescence polarisation
T5 sequence (looked up): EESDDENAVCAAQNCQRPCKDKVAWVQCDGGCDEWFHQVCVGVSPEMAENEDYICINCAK

GST-JARID1A PHD3 = target: B5; assay: fluorescence polarisation
GST-JARID1A PHD3 D1624N = target: T6, GST-JARID1A PHD3 D1624N (UniProt P29375 1601-1660, D1624N); assay: fluorescence polarisation
T6 sequence (looked up): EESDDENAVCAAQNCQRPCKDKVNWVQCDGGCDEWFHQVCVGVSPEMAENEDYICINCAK

[2] = target: T7, (HQ)5-HaloTag-JARID1A PHD3 (UniProt P29375 1601-1660); assay: HaloTag plate binding assay
T7 sequence (looked up): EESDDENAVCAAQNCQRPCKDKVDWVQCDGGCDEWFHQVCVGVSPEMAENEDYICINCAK

[3] = target: T7, (HQ)5-HaloTag-JARID1A PHD3; assay: pull-down
[4] = target: T8, (HQ)5-HaloTag-JMJD2A double tudor domain (UniProt O75164 895-1011); assay: HaloTag plate binding assay
T8 sequence (looked up): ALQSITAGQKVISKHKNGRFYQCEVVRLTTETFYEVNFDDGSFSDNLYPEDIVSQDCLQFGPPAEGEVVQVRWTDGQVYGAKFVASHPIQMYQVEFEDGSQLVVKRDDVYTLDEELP

- protein concentration at 90% fraction bound (H3(1-19)K9me3K19fluo): 18 µM
B1: GST-UHRF1 TTD (domain or fragment)
chain: MWDETELGLYKVNEYVDARDTNMGAWFEAQVVRVTRKAPSRDEPCSSTSRPALEEDVIYHVKYDDYPENGVVQMNSRDVRARARTIIKWQDLEVGQVVMLNYNPDNPKERGFWYDAEISRKRETRTARELYANVVLGDDSLNDCRIIFVDEVFKIERPGE

- protein concentration at 90% fraction bound (H3(1-14)K4me3K14fluo): 4 µM
B2: GST-JMJD2A DTD (domain or fragment, UniProt O75164 895-1011, looked up)
chain: ALQSITAGQKVISKHKNGRFYQCEVVRLTTETFYEVNFDDGSFSDNLYPEDIVSQDCLQFGPPAEGEVVQVRWTDGQVYGAKFVASHPIQMYQVEFEDGSQLVVKRDDVYTLDEELP

- protein concentration at 90% fraction bound (H3(1-14)K4me3K14fluo): 25 µM
B3: GST-RAG2 PHD (domain or fragment, UniProt P21784 414-487, looked up)
chain: GYWITCCPTCDVDINTWVPFYSTELNKPAMIYCSHGDGHWVHAQCMDLEERTLIHLSEGSNKYYCNEHVQIARA

- binding result ((HQ)5-HaloTag-AIRE PHD1): binds
- Kd ((HQ)5-HaloTag-BHC80 PHD): > 15 µM
Binder: ARTKQTARKSTEW (E(PEG-biotin) at position 12) [biotinylated histone H3 (1-11) peptide, unmethylated]

- protein concentration at 90% fraction bound [1]: 60 µM
B4: GST-BHC80 PHD (domain or fragment, UniProt Q96BD5 486-543, looked up)
chain: IHEDFCSVCRKSGQLLMCDTCSRVYHLDCLDPPLKTIPKGMWICPRCQDQMLKKEEAI

- IC50 [2]: 2.97 ± 0.35 µM
- IC50 [3]: 13.6 ± 4.5 µM
Binder: ARTKQTARKSTW (Kme3 (trimethyl-lysine) at position 4) [unlabeled (no biotin) histone H3 (1-11) K4me3 peptide]

- binding result [4]: binds
Binder: ARTKQTARKSTEW (Kme3 (trimethyl-lysine) at position 4; E(PEG-biotin) at position 12) [biotinylated histone H3 (1-11) peptide trimethylated at lysine 4]

Second part, the binder before the results:

Binder: B5
- protein concentration at 90% fraction bound (H3(1-14)K4me3K14fluo): 1 µM

Binder: B6
- Kd (GST-JARID1A PHD3 D1629A): 4.05 ± 0.691 µM
- Kd (GST-JARID1A PHD3 D1629N): 3.81 ± 0.551 µM
- Kd (GST-JARID1A PHD3 D1624A): 1.15 ± 0.145 µM
- Kd (GST-JARID1A PHD3): 0.294 ± 0.046 µM
- Kd (GST-JARID1A PHD3 D1624N): 0.634 ± 0.08 µM

Binder: B7
- Kd (GST-JARID1A PHD3): 9.35 ± 1.57 µM

B8: GST-AIRE PHD1 (domain or fragment, UniProt O43918 293-354, looked up)
chain: QKNEDECAVCRDGGELICCDGCPRAFHLACLSPPLREIPSGTWRCSSCLQATVQEVQPRAEE
- protein concentration at 90% fraction bound [1]: 4 µM
